The data set is described as follows: protein stability index of a GFP-peptide fusion (GPS, HEK-293T) (PSI 1-6); higher = more stable. To be noted: c terminus: native.

The source of these data is the supplement of paper PMC10567573.
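Also: lentivirally expressed fusion library, cells FACS-sorted into six equal-sized GFP/DsRed ratio bins, PSI computed from sequencing read fractions per bin weighted by bin number.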

B1: POLD2 addG (peptide)
chain: CQPISFSGFGAEDDDLGGLGLGPG
Take B1: the protein stability index (parent: NP_006221.1) amounted to 2.37.

B2: PSMB5 addG (peptide)
chain: DGWIRVSSDNVADLHEKYSGSTPG
Regarding B2, the protein stability index (parent: NP_002788.1) is 3.

B3: SNF8 addG (peptide)
chain: LPALFTDLYSQEITAEEAREALPG
For B3, the protein stability index (parent: NP_009172.2) was determined as 2.8.

B4: TRPA1 addG (peptide)
chain: EQRNSRWNTVLRAVKAKTHHLEPG
B4: the protein stability index (parent: NP_015628.1) is 3.92.
